Reference: patent publication US20150118710
“And” between values parts separate entries of the source, which are not always exact repeats. Equal values may be shown once.

Key:
[1] = tested on: Insulin glargine single chain precursor (Fglargine), glargine pro-peptide
[2] = target: Insulin glargine single chain precursor (Fglargine), glargine pro-peptide; remark: listed apart in the source

endogenous Kex2p (Kexin endoprotease) of Pichia pastoris
% conversion achieved (HPLC peak areas) [1]: 0% | % yield increased (two chain glargine), clone without co-expression [1]: 5% and 0% | secretion of two chain glargine (mass analysis of secreted product) [1]: it is not possible to secrete two chain glargine directly into the medium using endogenous Kex2p alone

B1: ΔKex2p, 660 amino acid functional domain of Kexin endoprotease (Kex2p) from Pichia pastoris (protein)
chain: MYLPALRLACWILIGLRSTEALETSEREIFALKLDKSWLPTFLETFQDKFRYERQINGLDDYHVFSHSKNEEFQLENFKVKTLLTRDNANLHSELISHNVDEVHMLRPSHYLHKRAPVVMDKSEELREQIAKDFDIDDPLFAKQWHLFNPRYPGHDVNVSQVWYDGITGKGVVTAIVDDGLDMDSKDLKESFCEEGSWDFNANTRLPKPRLRDDHHGTRCAAEIAAKKGNKYCGVGVAYDSKVSGIRILSDKITPEDEALSLIYGLDVNDIYSCSWGPADNGITMQGPSSLVKEAMLKGVQDGRKGKGALYVFASGNGASSGDNCNFDGYTNSIYSITVGAIDIKGLHPPYAEACSAVMTVTYSSGSGEHIHTTDINDKCSDTHGGTSAAAPLAAGLYSLVYQANPDLTWRDIQWLTVLTAVPVNEQEPGWQKTAIGKMYSHKYGYGKIDAYALVNLARSPDFPYLKPQSWIYGTEVHESLNTSEANGVLTSKYELTQEAKDLMNFEKIEHVTVTVDIKAAERGKVLVELISPSGVVSELAPYRRMDKDKEGFPNWTFMSVAHWGEDGLGEWILKITNKEGNSVVLNSWQIKFFGESQDPEKAEKFSLTKKYDEILVNPPSSSTSTTVDTSSTEATFSSSSVSEASATETDVKETSTTGD
% conversion achieved (HPLC peak areas), Clone #2F6, GAP promoter [2]: 9.44% | % conversion achieved (HPLC peak areas), Clone #3C1, GAP promoter [2]: 31.4% | % conversion achieved (HPLC peak areas), Clone #4B7, GAP promoter [2]: 33.6% | % conversion achieved (HPLC peak areas), Clone #5C5, GAP promoter [2]: 45% | % conversion achieved (HPLC peak areas), Clone #IB4, GAP promoter [2]: 13% | % conversion achieved (HPLC peak areas), Clone# 6D6, GAP promoter [2]: 59.5% | % yield increased (two chain glargine), FLD1 promoter [2]: > 93% | % yield increased (two chain glargine), GAP promoter [2]: 60%
